Assay results as given in patent US20110027907A1.

Experiments:
[1] = target: TfR-IgA Fc fusion protein, Leu256Ala mutant (Homo sapiens (Human)) (UniProt P01876); assay: flow cytometry, FcαRI-Ig on CHOP cells expressing TfR-IgA Fc fusion
[2] = target: TfR-IgA Fc fusion protein, Leu257Ala mutant (Homo sapiens (Human)) (UniProt P01876); assay: as above
[3] = target: TfR-IgA Fc fusion protein, Leu258Ala mutant (Homo sapiens (Human)) (UniProt P01876); assay: as above
human serum IgA (human) = assay: BIAcore, human serum IgA on CM5 chip, SSL7 mutant as analyte
[4] = target: human serum complement factor C5 (human) (UniProt P01031); assay: cell-based or functional assay
[5] = target: TfR-IgA Fc fusion protein, Leu256Ala mutant (Homo sapiens (Human)) (UniProt P01876); assay: flow cytometry, biotinylated rSSL7 on CHOP cells expressing TfR-IgA Fc fusion
[6] = target: TfR-IgA Fc fusion protein, Leu257Ala mutant (Homo sapiens (Human)) (UniProt P01876); assay: as above
[7] = target: TfR-IgA Fc fusion protein, Asn316Ala mutant (Homo sapiens (Human)) (UniProt P01876); assay: as above
[8] = target: TfR-IgA Fc fusion protein, Leu258Ala mutant (Homo sapiens (Human)) (UniProt P01876); assay: as above
[9] = target: TfR-IgA Fc fusion protein, His317Ala mutant (Homo sapiens (Human)) (UniProt P01876); assay: as above
TfR-IgA Fc fusion protein, His317Ala mutant (Homo sapiens (Human)), sequence (P01876 123-331 H198A limits assumed): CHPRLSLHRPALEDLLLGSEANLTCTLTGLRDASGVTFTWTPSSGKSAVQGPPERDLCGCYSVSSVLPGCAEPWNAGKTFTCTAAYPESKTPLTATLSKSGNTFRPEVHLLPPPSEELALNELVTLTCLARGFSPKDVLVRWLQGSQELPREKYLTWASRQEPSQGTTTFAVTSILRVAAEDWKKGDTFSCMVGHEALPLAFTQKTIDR

TfR-IgA Fc fusion protein, Leu258Ala mutant (Homo sapiens (Human)), sequence (P01876 123-331 L139A limits assumed): as the sequence (P01876 123-331 H198A limits assumed) above, with L17A, A76H counted along it
human serum complement factor C5 (human), sequence (P01031 19-673 limits assumed, chain 1 of 2): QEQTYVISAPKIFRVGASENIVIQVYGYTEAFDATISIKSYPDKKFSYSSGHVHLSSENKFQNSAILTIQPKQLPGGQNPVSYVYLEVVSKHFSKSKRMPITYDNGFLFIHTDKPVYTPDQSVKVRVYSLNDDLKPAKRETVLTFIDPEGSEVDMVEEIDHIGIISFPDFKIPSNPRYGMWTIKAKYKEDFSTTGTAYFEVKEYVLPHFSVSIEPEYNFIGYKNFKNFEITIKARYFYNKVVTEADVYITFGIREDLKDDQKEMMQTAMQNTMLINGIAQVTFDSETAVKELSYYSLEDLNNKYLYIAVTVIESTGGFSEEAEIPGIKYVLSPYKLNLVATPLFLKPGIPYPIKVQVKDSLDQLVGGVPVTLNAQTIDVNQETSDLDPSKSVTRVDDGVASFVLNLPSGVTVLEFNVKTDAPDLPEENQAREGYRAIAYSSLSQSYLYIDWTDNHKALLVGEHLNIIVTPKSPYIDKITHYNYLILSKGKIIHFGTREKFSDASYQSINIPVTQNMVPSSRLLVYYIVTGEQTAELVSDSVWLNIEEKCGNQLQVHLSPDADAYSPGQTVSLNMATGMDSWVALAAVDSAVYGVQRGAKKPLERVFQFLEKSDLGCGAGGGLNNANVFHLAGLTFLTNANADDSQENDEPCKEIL
human serum complement factor C5 (human), sequence (P01031 678-1676 limits assumed, chain 2 of 2): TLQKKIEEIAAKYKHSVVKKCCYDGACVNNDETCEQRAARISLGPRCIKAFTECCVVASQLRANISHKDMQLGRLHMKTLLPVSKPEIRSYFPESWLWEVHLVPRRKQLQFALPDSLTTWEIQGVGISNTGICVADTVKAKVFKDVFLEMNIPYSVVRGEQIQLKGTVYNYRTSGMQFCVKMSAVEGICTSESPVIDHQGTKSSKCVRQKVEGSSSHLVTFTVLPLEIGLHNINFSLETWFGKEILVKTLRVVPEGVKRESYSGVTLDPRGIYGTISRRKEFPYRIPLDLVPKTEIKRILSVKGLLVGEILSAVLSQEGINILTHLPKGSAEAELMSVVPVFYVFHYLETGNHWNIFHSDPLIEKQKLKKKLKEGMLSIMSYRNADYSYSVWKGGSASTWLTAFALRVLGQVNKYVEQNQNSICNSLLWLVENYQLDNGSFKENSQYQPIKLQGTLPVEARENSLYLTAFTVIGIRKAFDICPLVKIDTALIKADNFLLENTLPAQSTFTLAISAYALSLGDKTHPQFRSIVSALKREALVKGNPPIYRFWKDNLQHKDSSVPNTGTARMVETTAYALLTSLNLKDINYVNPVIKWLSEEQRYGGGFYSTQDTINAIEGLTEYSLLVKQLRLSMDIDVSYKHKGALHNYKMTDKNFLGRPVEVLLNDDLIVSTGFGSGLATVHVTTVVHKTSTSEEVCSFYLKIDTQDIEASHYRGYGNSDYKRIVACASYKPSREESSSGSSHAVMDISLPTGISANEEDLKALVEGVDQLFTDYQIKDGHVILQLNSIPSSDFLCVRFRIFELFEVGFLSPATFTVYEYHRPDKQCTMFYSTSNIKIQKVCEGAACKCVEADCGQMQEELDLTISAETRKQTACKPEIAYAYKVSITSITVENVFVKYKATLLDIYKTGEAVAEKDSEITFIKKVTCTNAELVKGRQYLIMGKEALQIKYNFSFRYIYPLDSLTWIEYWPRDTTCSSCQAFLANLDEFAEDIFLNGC
TfR-IgA Fc fusion protein, Leu257Ala mutant (Homo sapiens (Human)), sequence (P01876 123-331 L138A limits assumed): as the sequence (P01876 123-331 H198A limits assumed) above, with L16A, A76H counted along it
TfR-IgA Fc fusion protein, Leu256Ala mutant (Homo sapiens (Human)), sequence (P01876 123-331 L137A limits assumed): as the sequence (P01876 123-331 H198A limits assumed) above, with L15A, A76H counted along it
TfR-IgA Fc fusion protein, Asn316Ala mutant (Homo sapiens (Human)), sequence (P01876 123-331 N197A limits assumed): as the sequence (P01876 123-331 H198A limits assumed) above, with N75A, A76H counted along it

Substance “FcαRI-Ig (from UniProt P24071 22-227) (Fc fusion)” has a fold reduction of binding against WT IgA Fc [1] of 3.3 fold, a fold reduction of binding against WT IgA Fc [2] of 2.3 fold and a fold reduction of binding against WT IgA Fc [3] greater than 100 fold.
Substance SSL7 mutant L79A has a Change (fold in KD against SSL7 wild-type) (human serum IgA (human)) of 91 fold and a Kd (human serum IgA (human)) of 0.1 µM.
With SSL7 mutant N38T the Change (fold in KD against SSL7 wild-type) (human serum IgA (human)) was 35 fold and the Kd (human serum IgA (human)) was 0.038 µM.
Work on SSL7 mutant N83A yielded a Change (fold in KD against SSL7 wild-type) (human serum IgA (human)) of 4 fold and a Kd (human serum IgA (human)) of 0.004 µM.
SSL7 mutant P82A was tested, and the Change (fold in KD against SSL7 wild-type) (human serum IgA (human)) was 35 fold and the Kd (human serum IgA (human)) was 0.039 µM.
Substance SSL7 mutant R44A has a Change (fold in KD against SSL7 wild-type) (human serum IgA (human)) of 3.2 fold and a Kd (human serum IgA (human)) of 0.0036 µM.
“SSL7 wild-type (haemolysis assay of FIG. 9)” showed a haemolysis at 2 µM, % of the maximum lysis [4] of 10% and an inhibition of haemolysis at 2 µM [4] of 90%.
“recombinant SSL7 (GL1 S. aureus Greenlane), wild type” was tested, and the fold reduction of binding against WT IgA Fc [5] was 11.5 fold, the fold reduction of binding against WT IgA Fc [6] was 15.4 fold and the fold reduction of binding against WT IgA Fc [7] was 1.8 fold. The fold reduction of binding against WT IgA Fc [8] was 6.5 fold and the fold reduction of binding against WT IgA Fc [9] was 1.2 fold.
